“Also recorded” adds a separate entry of the source.
Legend:
panel of other MMPs = assay: ELISA binding, panel of other MMPs
Description: MMP-7 Elisa binding assay: A 96-well plate (Nunc) was coated with MMP at […]. After coating, the plate was incubated with the GSM-192 at 25° C. for 1 h. The bound Fab fragment/full length was detected using a goat anti-Fab/anti-mouse antibody followed by peroxidase-conjugated bovine anti-goat antibody according to standard procedures. A four-parametric sigmoidal curve-fitting analysis was used to calculate the half-maximal effective concentration.

MMP-9 = MMP-9 (Homo sapiens, UniProt P14780); assay: ELISA binding, cross-reactivity
MMP-14 = MMP-14 (Homo sapiens, UniProt P50281); assay: ELISA binding, cross-reactivity
MMP-12 = MMP-12 (Homo sapiens, UniProt P39900); assay: ELISA binding, cross-reactivity
MMP-13 = MMP-13 (Homo sapiens, UniProt P45452); assay: ELISA binding, cross-reactivity
[1] = molecular target: T1, activated MMP-7 recombinant enzyme (Homo sapiens, UniProt P09237); assay: Dot blot, activated enzyme; type: binding; settings: different concentrations of enzyme
T1 sequence (P09237 95-267): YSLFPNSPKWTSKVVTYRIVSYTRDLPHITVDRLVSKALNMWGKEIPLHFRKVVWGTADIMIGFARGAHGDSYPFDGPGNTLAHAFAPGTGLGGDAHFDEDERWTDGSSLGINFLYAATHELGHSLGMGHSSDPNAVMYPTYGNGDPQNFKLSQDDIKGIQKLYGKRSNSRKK
Description: (§1) A dot blot was performed by immobilizing 1, 1.5 and 2 μg zymogen and activated MMP-7 recombinant enzyme on nitrocellulose membrane pre wetted with TBST using a vacuum based manifold 96 well dot-blot system (GE 10447900 Minifold dot blot). The blocking was performed for 1 hour at room temperature with 3% BSA in TBST. The membrane was then probed for binding by antibody eluted in the earlier step by incubating overnight. The anti MMP-7 mAb used was at 2 ug/ml concentration in TBST. The membrane after 3 washes in TBST was incubated with goat anti mouse HRP antibody and developed using ECL to determine the selectivity of binding towards catalytic form only.

MMP-7 zymogen = molecular target: T2, MMP-7 zymogen (Homo sapiens, UniProt P09237); assay: Dot blot, zymogen; type: binding
T2 sequence (P09237 18-267 limits assumed): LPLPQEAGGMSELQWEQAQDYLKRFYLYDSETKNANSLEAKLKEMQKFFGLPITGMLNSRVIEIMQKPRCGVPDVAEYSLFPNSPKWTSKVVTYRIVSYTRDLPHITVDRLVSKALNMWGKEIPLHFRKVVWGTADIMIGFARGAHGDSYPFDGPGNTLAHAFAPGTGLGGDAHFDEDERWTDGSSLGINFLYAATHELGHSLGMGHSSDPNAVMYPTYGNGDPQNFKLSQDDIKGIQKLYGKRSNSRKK
Description: as §1

CFPAC-1 cells = assay: Wound healing assay (scratch assay); type: cell-based, human; settings: 7 hours post treatment, vs control antibody GST
Description: Wound Healing Assay (Scratch Assay): The migratory behavior of cells was assayed by means of a wound-healing assay using a culture-insert (ibidi GmbH, Am Klopferspitz 19, Martinsried, Germany) according to the manufacturer's instruction. After 24 h the culture-inserts were removed leaving a cell-free gap (“defined as a wound”) of approx. 500 μm. The migration rate into this “wound area” was documented and measured using Carl Zeiss microscope (DeltaVision Microscopy Imaging Systems—GE Healthcare Life Sciences, USA). The migration rate was determined by percentage area covered by cells. Each analysis was performed in triplicates and was repeated two times.
GSM-192 Fab reduces cell motility in vitro: MMP-7 mediated E-Cadherin cleavage promotes cell migration^19, so it was hypothesized that an effective anti MMP-7 antibody directed to the activated enzyme should be able to impact migration.

[2] = system: RIP1-Tag2 mice serum (circulating MMP); assay: Dot blot with RIP1-Tag2 mice serum; type: binding, mouse; settings: serum of RIP1-Tag2 mice with late stage insulinomas, 335 times the protein of pure MMP-7 control
Description: as §1
Serum isolated from RIP1-Tag2 mice with late stage insulinomas were used to determine if anti MMP-7 mAb would be bound and removed by circulating enzyme. […] The total serum protein loaded for this experiment was 335 times the protein concentration used for pure MMP-7 catalytic control.

[3] = system: RIP1-Tag2 insulinoma (PanNET) model; assay: Early stage treatment in RIP1-Tag2 (PanNET) mice; type: in vivo, mouse; settings: 3 mg/kg every day IP; for area covered by CD34+ cells: islets undergoing angiogenesis
Source text: (§2) RIP1-Tag2: The RIP1Tag2 (RT2) murine PanNET model was developed by the fusion of Rat Insulin II promoter region to the SV40 early region that encodes the large T and small t antigens. Although oncogene expression begins during embryonic development (E8.5), the pancreatic islets initially have a normal anatomical and histological appearance (“normal” stage). Beginning at 4-5 weeks of age, hyperplastic and dysplastic islets begin to appear, rending 50% of all islets by 10 weeks of age. Angiogenic islets appear beginning around 6 weeks of age, and represent 10% of all islets at 10.5 weeks. Angiogenic islets are recognized by their dilated blood vessels and micro-hemorrhages. Tumors form beginning at 9-10 weeks and represent 2-4% of all the islets by 14 weeks. About half of the tumors at end stage evidence either focal or widespread invasion to the surrounding acinar tissue. RIP-Tag2 mice die at approximately 14 weeks of age primarily due to hyperinsulinemia.
GSM-192 treatment reduces occurrence of advanced tumor lesions in RIP1-Tag2 (PanNET) mice in early stage treatments: RIP1-Tag2 mice (n=15) in transition stage from hyperplastic to angiogenic stage spanning 6 to 8 weeks of age were treated with GSM-192 and GST control antibody at a concentration of 3 mg/kg every day intra peritoneal (IP). Animals at age 8 weeks post treatment was sacrificed and their pancreas was embedded in paraffin blocks and sectioned. Several sections in different depth in the tissue were made for subsequent histological analysis or immunofluorescence staining. Tumor sizes and staging was done in accordance with RIP1-Tag2 manual. […] As previously observed in in-vitro cell culture, the tissue was tested for differences in cell proliferation rate (with cell division marker Ki-67) and in cell apoptosis rate (with effector apoptotic marker Caspase-3).

[4] = system: RIP1-Tag2 insulinoma (PanNET) model; assay: Late stage treatment in RIP1-Tag2 (PanNET) mice; type: in vivo, mouse; settings: age 10 to 12 weeks, 5 mg/kg every other day IP
Source text: as §2
The tumor volume was measured using x, y and z dimensions from a caliper scale.

[5] = 6 to 8 weeks of age, listed as anti MMP-7 mAb

Chain of MMP-12 (P39900 106-470): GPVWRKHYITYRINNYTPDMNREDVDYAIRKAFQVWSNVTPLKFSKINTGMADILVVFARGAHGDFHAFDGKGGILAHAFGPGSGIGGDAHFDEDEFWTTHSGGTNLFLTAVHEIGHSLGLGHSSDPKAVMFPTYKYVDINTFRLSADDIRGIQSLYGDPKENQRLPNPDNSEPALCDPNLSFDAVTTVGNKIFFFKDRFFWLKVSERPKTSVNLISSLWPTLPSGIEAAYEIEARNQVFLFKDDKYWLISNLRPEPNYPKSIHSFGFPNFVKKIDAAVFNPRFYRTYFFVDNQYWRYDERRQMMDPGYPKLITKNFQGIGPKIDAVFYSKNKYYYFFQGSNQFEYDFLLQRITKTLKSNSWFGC
Chain of MMP-9 (P14780 94-707, species assumed): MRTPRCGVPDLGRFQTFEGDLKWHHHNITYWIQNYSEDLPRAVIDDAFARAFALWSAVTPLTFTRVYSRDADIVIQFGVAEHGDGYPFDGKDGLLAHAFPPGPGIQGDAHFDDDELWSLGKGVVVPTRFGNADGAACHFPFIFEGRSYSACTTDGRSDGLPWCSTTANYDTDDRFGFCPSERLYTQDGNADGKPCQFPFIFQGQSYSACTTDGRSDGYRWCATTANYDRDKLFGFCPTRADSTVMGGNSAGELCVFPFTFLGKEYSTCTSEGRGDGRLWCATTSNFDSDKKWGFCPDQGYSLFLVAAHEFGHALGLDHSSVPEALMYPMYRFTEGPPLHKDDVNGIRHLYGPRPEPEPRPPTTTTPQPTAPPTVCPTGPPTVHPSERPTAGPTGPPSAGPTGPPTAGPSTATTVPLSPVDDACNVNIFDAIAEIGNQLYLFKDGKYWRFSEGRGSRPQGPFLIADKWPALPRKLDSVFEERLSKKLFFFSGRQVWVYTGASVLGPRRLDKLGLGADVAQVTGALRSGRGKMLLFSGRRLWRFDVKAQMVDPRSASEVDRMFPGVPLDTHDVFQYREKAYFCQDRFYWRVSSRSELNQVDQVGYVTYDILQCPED

- binding to a panel of other MMPs (panel of other MMPs): did not bind effectively
- crossreactivity to MMP-9 (MMP-9): did not show crossreactivity
- crossreactivity to MMP-14 (MMP-14): did not show crossreactivity
- crossreactivity to MMP-12 (MMP-12): did not show crossreactivity
- crossreactivity to MMP-13 (MMP-13): did not show crossreactivity
- binding to activated form of MMP-7 [1]: bound to the catalytic domain
- binding to activated form of MMP-7 ([1]; listed as anti MMP-7 Ab): selective binding
- binding to total serum proteins ([2]; listed as Anti MMP-7mAb): does not bind
- binding to total serum proteins ([2]; listed as anti MMP-7 mAb): did not show any binding
B1: GSM-192: monoclonal antibody to MMP-7 binding the catalytic domain, not the zymogen; VL SEQ ID NO: 1, VH SEQ ID NO: 2 (antibody, V domains shown)
VH: EVQLQQSGPELVKPGASVKIPCKASGYTFTDYNMDWMKQSHGKSLEWIGHINPNNGGTFYNQKFKDKATFIVDKSSNTAYMELRSLTSEDTAVYFCARGGGLRRGPFAYWGQGTLVTVS
VL: DIVTQSPASLAVSLGQRATISCRASESFDSYGNTFVHWYQQKPGQPPKLLIYLVSNLESGVPAGFRGRGSRTDFTLTIDPVEADDAATYYCQQNNEDPYTFGGGTKLEIKRA
modifications: GSM-192 Heavy Chain Sequence; GSM-192 Light Chain Sequence
- binding to zymogen form of MMP-7 (MMP-7 zymogen): not the zymogen form; also recorded: did not bind
- cell migration / rate of wound closure (CFPAC-1 cells): significant reduction in rate of wound closure; also recorded: slowed down cell migration
- number of Caspase-3 positive cells (apoptosis) ([3]; 6 to 8 weeks of age): No significant change
- number of Ki-67 positive cells (cell proliferation) ([3]; 6 to 8 weeks of age): No significant change
- number of Caspase-3 positive cells (apoptosis) [3, 5]: does not show significant difference
- number of Ki-67 positive cells (cell proliferation) [3, 5]: does not show significant difference
- number of angiogenic islets / fraction of islets advancing to post angiogenic lesions ([3]; 6 to 8 weeks of age, vs GST control antibody): reduced almost by half; also recorded: half of the total seen in control mice
- area covered by CD34+ cells [3]: less abundant
- area covered by CD34+ cells ([3]; listed as anti MMP-7 mAb): reduces the area covered by CD34+ cells
- tumor volume relative to control group [4]: less than half

— patent publication US12291578B2, “Anti-matrix metalloproteinase 7 (MMP-7) inhibitory antibody and uses thereof” (Yeda Research and Development Co. Ltd., priority 2019, dated 2025)
